Experiments:
[1] = molecular target: T1, human CD3 expressed in Jurkat cells (human, UniProt P07766 23-207; P04234 22-171; P20963 22-164; P09693 23-182); test: flow cytometry, 70 nM antibody on Jurkat/NFAT-luc cells, No IgE
T1 construct: Endogenous CD3 complex of Jurkat T cells; also called hCD3; Jurkat/NFAT-luc cells
Protocol: (§1) For flow cytometry analysis, HEK293, HEK293/hFcεR1α/hFcεR1β/hFcεR1γ and HEK293/mf FcεR1α/hFcεR1β/hFcεR1γ cells were collected after dissociation using Enzyme Free Dissociation Buffer (Millipore Cat# S-004), and the cells were pre-incubated with or without 70 nM human IgE, for 30 minutes on ice in FACS buffer (PBS, without Ca⁺⁺ and Mg⁺⁺, (Irvine Scientific, Cat#9240) containing 2% FBS). Jurkat/NFAT-luc cells were also collected. The antibodies at the concentration of 70 nM were then added to 1×10⁶ cells/well of each cell type at 4° C. for 30 minutes. […] Cells were fixed using BD CytoFix™ (Becton Dickinson, Cat. #554655) and analyzed on Accuri™ C6 (BD) or CytoFLEX Flow cytometer (Beckman Coulter). Unstained and secondary antibody alone controls were also tested for all cell lines and a sample was evaluated for viability using the Far Red Fluo viability dye (Thermo Fisher, Cat#L10120) according to the manufacturer's protocol. The results were analyzed using FlowJo software (version 10.0.8, FlowJo) to determine the geometric means of fluorescence for viable cells and the binding ratio was calculated with the mean fluorescence intensity (MFI) of the experimental condition normalized by the MFI of the unstained respective cells.

hFcεR1α.MMH [2] = molecular target: T2, hFcεR1α.MMH (human); test: SPR (Biacore 8k), antibody captured on anti-human Fc, hFcεR1α.MMH injected, 25°C
T2 construct: also called ectodomain of human FcεR1α with C-term myc-myc-6×His tag
T2 chain: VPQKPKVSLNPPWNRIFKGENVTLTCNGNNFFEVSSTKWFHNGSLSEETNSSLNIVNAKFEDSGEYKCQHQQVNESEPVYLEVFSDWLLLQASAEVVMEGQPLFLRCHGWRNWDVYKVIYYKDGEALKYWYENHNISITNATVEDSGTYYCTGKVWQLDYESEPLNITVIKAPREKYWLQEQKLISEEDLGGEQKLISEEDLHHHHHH
Protocol: (§2) Equilibrium dissociation constants (KD) for human or cynomolgus FcεR1α ectodomain binding to purified anti-FcεR1α monoclonal antibodies (mAbs) and CD3×FcεR1α bispecific antibodies (bsAbs) were determined using a real-time surface plasmon resonance biosensor (SPR-Biacore), Biacore 8k. All binding studies were performed in 10 mM HEPES, 150 mM NaCl, 3 mM EDTA, and 0.05% v/v surfactant Tween-20, pH 7.4 (HBS-ET) running buffer at 25° C. and 37° C.
(§3) The Biacore CM4 sensor surface was first derivatized by amine coupling with a monoclonal mouse anti-human Fc antibody to capture approximately 500-900 RUs anti-FcεR1α monoclonal antibodies or anti-CD3×FcεR1α bispecific monoclonal antibodies. 1 RU (response unit) represents 1 pg of protein per mm², as defined by the manufacturer. The ectodomain of human and cynomolgus FcεR1α reagents were expressed with a C-term myc-myc-6×His tag-hFcεR1α.MMH (SEQ ID NO: 57) and mfFcεR1α.MMH (SEQ ID NO: 58). Different concentrations of FcεR1α reagents were prepared in HBS-ET running buffer (600 nM-7.4 nM; serially diluted by 3-fold) and injected over anti-human Fc captured anti-FcεR1α monoclonal antibodies or anti-CD3×FcεR1α bispecific monoclonal antibodies surfaces for 1 minute at a flow rate of 30 μL/minute. The dissociation of bound FcεR1α reagents was monitored for 4 minutes in HBS-ET running buffer. Association (kₐ) and dissociation (kd) rate constants were determined by fitting the real-time binding sensorgrams to a 1:1 binding model with mass transport limitation using Biacore 8k evaluation software. Binding dissociation equilibrium constants (KD) and dissociative half-lives (t½) were calculated from the kinetic rate constants as: […]

mfFcεR1α.MMH [3] = molecular target: T3, mfFcεR1α.MMH (cynomolgus (Macaca fascicularis)); test: SPR (Biacore 8k), antibody captured on anti-human Fc, mfFcεR1α.MMH injected, 37°C
T3 construct: also called mfFceR1a.MMH; ectodomain of cynomolgus FcεR1α with C-term myc-myc-6×His tag
T3 chain: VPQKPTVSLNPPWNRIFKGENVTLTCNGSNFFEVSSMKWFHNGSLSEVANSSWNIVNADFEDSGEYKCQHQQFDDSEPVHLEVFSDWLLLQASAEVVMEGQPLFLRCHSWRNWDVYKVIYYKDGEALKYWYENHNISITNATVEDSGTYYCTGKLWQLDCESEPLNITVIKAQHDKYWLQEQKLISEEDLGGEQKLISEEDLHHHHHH
Protocol: as §2, §3

[4] = molecular target: T4, monkey (cynomolgus) FcεR1α expressed on cells (cynomolgus); test: flow cytometry, 70 nM antibody on HEK293/mfFcεR1α/hFcεR1β/hFcεR1γ cells, No IgE
T4 construct: range 4-260; On HEK293 cells, co-expressed with human FcεR1β and FcεR1γ; also called mfFcεR1α; HEK293/mfFcεR1α/hFcεR1β/hFcεR1γ cells
Protocol: as §1

hFcεR1α.MMH [5] = molecular target: T2, hFcεR1α.MMH; test: SPR (Biacore 8k), antibody captured on anti-human Fc, hFcεR1α.MMH injected, 37°C
Protocol: as §2, §3

mfFcεR1α.MMH [6] = molecular target: T3, mfFcεR1α.MMH; test: SPR (Biacore 8k), antibody captured on anti-human Fc, mfFcεR1α.MMH injected, 25°C
Protocol: as §2, §3

[7] = molecular target: T5, human FcεR1α expressed on cells (human, UniProt P12319 26-257); test: flow cytometry, 70 nM antibody on HEK293/hFcεR1α/hFcεR1β/hFcεR1γ cells, No IgE
T5 construct: whole, on cells; Co-expressed with human FcεR1β (amino acids 1-244 of Uniprot Q01362-1) and FcεR1γ (amino acids 1-86 of Uniprot P30273-1); also called hFcεR1α; HEK293/hFcεR1α/hFcεR1β/hFcεR1γ cells
T5 sequence (looked up): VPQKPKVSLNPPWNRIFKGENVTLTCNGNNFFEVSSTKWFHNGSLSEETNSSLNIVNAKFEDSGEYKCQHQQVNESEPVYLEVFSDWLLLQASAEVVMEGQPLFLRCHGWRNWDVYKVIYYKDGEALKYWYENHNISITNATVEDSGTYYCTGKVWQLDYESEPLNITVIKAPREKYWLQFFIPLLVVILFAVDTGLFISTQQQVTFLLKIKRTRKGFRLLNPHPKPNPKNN
Protocol: as §1

[8] = molecular target: T5, human FcεR1α expressed on cells; test: flow cytometry, 70 nM antibody on HEK293/hFcεR1α/hFcεR1β/hFcεR1γ cells pre-incubated with 70 nM human IgE
Protocol: as §1

[9] = molecular target: T5, human FcεR1α expressed on cells; test: cell-based or functional assay
[10] = molecular target: T1, human CD3 expressed in Jurkat cells; test: cell-based or functional assay
[11] = molecular target: T5, human FcεR1α expressed on cells; test: cell-based or functional assay; remark: listed apart in the source
[12] = molecular target: T4, monkey (cynomolgus) FcεR1α expressed on …; test: flow cytometry, 70 nM antibody on HEK293/mfFcεR1α/hFcεR1β/hFcεR1γ cells pre-incubated with 70 nM human IgE
Protocol: as §1

T1 sequence (P07766 23-207 limits assumed, chain 1 of 4): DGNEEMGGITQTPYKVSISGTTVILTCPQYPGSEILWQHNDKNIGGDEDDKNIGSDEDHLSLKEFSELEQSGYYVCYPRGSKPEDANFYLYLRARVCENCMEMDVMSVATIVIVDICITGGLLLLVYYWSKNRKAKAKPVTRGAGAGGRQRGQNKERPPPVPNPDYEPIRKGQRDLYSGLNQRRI
T1 sequence (P04234 22-171 limits assumed, chain 2 of 4): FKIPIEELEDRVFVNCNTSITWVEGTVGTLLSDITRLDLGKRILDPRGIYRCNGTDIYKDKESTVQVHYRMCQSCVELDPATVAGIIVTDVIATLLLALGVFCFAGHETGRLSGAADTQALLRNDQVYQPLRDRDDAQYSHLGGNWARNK
T1 sequence (P20963 22-164 limits assumed, chain 3 of 4): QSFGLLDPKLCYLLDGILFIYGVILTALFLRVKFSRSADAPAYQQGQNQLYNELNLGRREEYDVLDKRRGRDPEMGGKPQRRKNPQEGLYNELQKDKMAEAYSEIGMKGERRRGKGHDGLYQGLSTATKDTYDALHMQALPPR
T1 sequence (P09693 23-182 limits assumed, chain 4 of 4): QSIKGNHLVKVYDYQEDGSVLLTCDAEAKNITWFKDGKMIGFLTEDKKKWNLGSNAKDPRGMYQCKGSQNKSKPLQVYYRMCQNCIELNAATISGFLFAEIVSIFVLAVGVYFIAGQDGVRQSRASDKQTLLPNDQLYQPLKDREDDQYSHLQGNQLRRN

Binding Ratio (MFI of Treated/MFI of Unstained) [1]: 94
600 nM hFcεR1α.MMH Bound (RU) (hFcεR1α.MMH [2]): 69 RU
Kd (hFcεR1α.MMH [2]): 274 nM
koff (hFcεR1α.MMH [2]): 0.0212 s⁻¹
kon (hFcεR1α.MMH [2]): 77400 M⁻¹ s⁻¹
t½ (hFcεR1α.MMH [2]): 32.4 s
600 nM mfFceR1a.MMH Bound (RU) (mfFcεR1α.MMH [3]): 37 RU
Kd (mfFcεR1α.MMH [3]): 520 nM
koff (mfFcεR1α.MMH [3]): 0.0445 s⁻¹
kon (mfFcεR1α.MMH [3]): 85600 M⁻¹ s⁻¹
t½ (mfFcεR1α.MMH [3]): 15.6 s
Binding Ratio (MFI of Treated/MFI of Unstained) [4]: 169
600 nM hFcεR1α.MMH Bound (RU) (hFcεR1α.MMH [5]): 40 RU
Kd (hFcεR1α.MMH [5]): 977 nM
koff (hFcεR1α.MMH [5]): 0.0934 s⁻¹
kon (hFcεR1α.MMH [5]): 95600 M⁻¹ s⁻¹
t½ (hFcεR1α.MMH [5]): 7.2 s
600 nM mfFceR1a.MMH Bound (RU) (mfFcεR1α.MMH [6]): 60 RU
Kd (mfFcεR1α.MMH [6]): 256 nM
koff (mfFcεR1α.MMH [6]): 0.0161 s⁻¹
kon (mfFcεR1α.MMH [6]): 62900 M⁻¹ s⁻¹
t½ (mfFcεR1α.MMH [6]): 42 s
Binding Ratio (MFI of Treated/MFI of Unstained) [7]: 253
Binding Ratio (MFI of Treated/MFI of Unstained) [8]: 295
EC80, cleaved caspase 3+ cleaved PARP+ HEK293/hFcεR1α/hFcεR1β/hFcεR1γ target cells with activated CD8+ T cells [9]: 0.0613 nM
Maximum percent apoptotic cells, HEK293/hFcεR1α/hFcεR1β/hFcεR1γ target cells with activated CD8+ T cells [9]: 55.8%
EC50 [M], NFAT-luciferase in Jurkat/NFAT-luc with HEK293/hFcεR1α/hFcεR1β/hFcεR1γ cells, 10 nM IgE [10]: 1.1e-09 M
EC50 [M], NFAT-luciferase in Jurkat/NFAT-luc with HEK293/hFcεR1α/hFcεR1β/hFcεR1γ cells, No IgE [10]: 2.3e-10 M
Fold Activation, Jurkat/NFAT-luc with HEK293/hFcεR1α/hFcεR1β/hFcεR1γ cells, 10 nM IgE [10]: 27 fold
Fold Activation, Jurkat/NFAT-luc with HEK293/hFcεR1α/hFcεR1β/hFcεR1γ cells, No IgE [10]: 24 fold
EC50, decrease of primary human basophils within PBMC with activated CD8+ T cells [11]: 4 nM
Maximum percent basophil decrease, PBMC with activated CD8+ T cells [11]: 90.9%
Binding Ratio (MFI of Treated/MFI of Unstained) [12]: 284
B1: bsAb24921D (bispecific antibody, human IgG4 S228P, kappa)
heavy 1: QVQVQESGPRLVKPSETLSLTCTVSGGSMSSYYWIWIRQPPGKELEWIGYIYYSGSTNYNPSLKSRATISVDTSKNQFSLNLNSVTAADTAVYYCARRNNWNYVRAFDIWGQGTMVTVSSASTKGPSVFPLAPCSRSTSESTAALGCLVKDYFPEPVTVSWNSGALTSGVHTFPAVLQSSGLYSLSSVVTVPSSSLGTKTYTCNVDHKPSNTKVDKRVESKYGPPCPPCPAPPVAGPSVFLFPPKPKDTLMISRTPEVTCVVVDVSQEDPEVQFNWYVDGVEVHNAKTKPREEQFNSTYRVVSVLTVLHQDWLNGKEYKCKVSNKGLPSSIEKTISKAKGQPREPQVYTLPPSQEEMTKNQVSLTCLVKGFYPSDIAVEWESNGQPENNYKTTPPVLDSDGSFFLYSRLTVDKSRWQEGNVFSCSVMHEALHNHYTQKSLSLSLGK
heavy 2: EVQLVESGGGLVQPGRSLRLSCAASGFTFDDYSMHWVRQAPGKGLEWVSGISWNSGSIGYADSVKGRFTISRDNAKNSLYLQMNSLRAEDTALYYCAKYGSGYGKFYYYGMDVWGQGTTVTVSSASTKGPSVFPLAPCSRSTSESTAALGCLVKDYFPEPVTVSWNSGALTSGVHTFPAVLQSSGLYSLSSVVTVPSSSLGTKTYTCNVDHKPSNTKVDKRVESKYGPPCPPCPAPPVAGPSVFLFPPKPKDTLMISRTPEVTCVVVDVSQEDPEVQFNWYVDGVEVHNAKTKPREEQFNSTYRVVSVLTVLHQDWLNGKEYKCKVSNKGLPSSIEKTISKAKGQPREPQVYTLPPSQEEMTKNQVSLTCLVKGFYPSDIAVEWESNGQPENNYKTTPPVLDSDGSFFLYSRLTVDKSRWQEGNVFSCSVMHEALHNRFTQKSLSLSPGK
light: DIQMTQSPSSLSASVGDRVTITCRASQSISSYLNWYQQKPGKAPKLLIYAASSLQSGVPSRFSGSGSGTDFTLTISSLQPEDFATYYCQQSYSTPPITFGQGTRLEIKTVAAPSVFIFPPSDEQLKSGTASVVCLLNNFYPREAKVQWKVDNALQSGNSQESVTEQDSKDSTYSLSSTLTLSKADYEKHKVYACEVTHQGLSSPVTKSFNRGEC
notes: IgG4 Fc domain; two distinct heavy chains with a common light chain; also called anti-FcεR1α×CD3 bispecific antibody; FcεR1α × hCD3

From patent publication US20200062844A1 (Regeneron, published 2020)
